Data from US20250179139A1 (CENTRO DE INMUNOLOG A MOLECULAR, published 2025).

B1: IL-2 variant 1A displayed on phage (S2 library) (other, not shown: large carriers; small tags and cut ends)
chain: TSSSTKKTQLQLEHLLLDLQMILNGINNYKNPKLTRMLTFKFYMPKKATELKHLQCLEEELKPLEEVLNLAQSKNFHFDPHDVVENINVLLLELKGSETTFMCEYADETATIVEFLNRWITFSQSIISTLT
notes: Substitutions are derived from the segment name printed for the fusion protein built from this clone
B2: recombinant extracellular domain of the human IL-2 receptor beta subunit (receptor, UniProt P14784 27-240, looked up)
chain: AVNGTSQFTCFYNSRANISCVWSQDGALQDTSCQVHAWPDRRRWNQTCELLPVSQASWACNLILGAPDSQKLTTVDIVTLRVLCREGVRWRVMAIQDFKPFENLRLMAPISLQVVHVETHRCNISWEISQASHYFERHLEFEARTLSPGHTWEEAPLLTLKQKQEWICLETLTPDTQYEFQVRVKPLQGEFTTWSPWSQPLAFRTKPAALGKDT
notes: extracellular domain; also called beta chain of the IL-2 receptor; beta subunit of the receptor

How the values were obtained:
[1] = target: B2; test: phage ELISA; ratio of the signal on the beta subunit extracellular domain to the signal on anti-c-myc antibody 9E10 (display level); anti-M13 antibody-HRP
Method: The binding capacity of the new variants to the extracellular domain of the IL-2 receptor beta subunit was assessed by ELISA. For this purpose, plates were coated with the recombinant extracellular domain of the IL-2 receptor beta subunit. The bound phages were detected with an anti-M13 antibody conjugated to horseradish peroxidase. Simultaneously, their binding to a plate coated with the monoclonal antibody 9E10 directed against the c-myc peptide that is fused to the proteins presented on the phages was determined to establish the display levels of each. The ratio between the signals obtained with both coating molecules (relative reactivity) is plotted as a measure of the intrinsic binding capacity of each variant to the beta-subunit.

[2] = target: T1, IL-2/Fc (K35E) fusion protein (human, UniProt P60568 21-153); test: BIAcore (SPR); format not stated
T1 construct: mature; IL-2 fused to the N-terminal end of human IgG1 Fc; also called fusion protein derived from the original IL-2; human IL-2/Fc fusion protein
T1 sequence (P60568 other isoform, or with tags, fused parts or gaps K35E K35E limits assumed): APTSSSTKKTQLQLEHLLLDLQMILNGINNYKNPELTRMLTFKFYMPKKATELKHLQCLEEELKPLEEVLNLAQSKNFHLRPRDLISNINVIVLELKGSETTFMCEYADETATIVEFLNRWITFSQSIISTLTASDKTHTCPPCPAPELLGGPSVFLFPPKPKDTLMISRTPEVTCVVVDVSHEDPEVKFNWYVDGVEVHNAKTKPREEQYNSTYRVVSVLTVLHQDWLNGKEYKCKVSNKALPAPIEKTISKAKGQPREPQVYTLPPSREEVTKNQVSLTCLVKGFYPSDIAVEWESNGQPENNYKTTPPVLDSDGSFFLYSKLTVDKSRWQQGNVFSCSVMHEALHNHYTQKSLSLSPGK

[3] = target: T2, H9/Fc (K35E) fusion protein (human, UniProt P60568 21-153); test: BIAcore (SPR); format not stated
T2 construct: mature; Same format as the other Fc fusions; also called fusion protein based on the H9 superkine
T2 sequence (P60568 other isoform, or with tags, fused parts or gaps K35E K35E limits assumed): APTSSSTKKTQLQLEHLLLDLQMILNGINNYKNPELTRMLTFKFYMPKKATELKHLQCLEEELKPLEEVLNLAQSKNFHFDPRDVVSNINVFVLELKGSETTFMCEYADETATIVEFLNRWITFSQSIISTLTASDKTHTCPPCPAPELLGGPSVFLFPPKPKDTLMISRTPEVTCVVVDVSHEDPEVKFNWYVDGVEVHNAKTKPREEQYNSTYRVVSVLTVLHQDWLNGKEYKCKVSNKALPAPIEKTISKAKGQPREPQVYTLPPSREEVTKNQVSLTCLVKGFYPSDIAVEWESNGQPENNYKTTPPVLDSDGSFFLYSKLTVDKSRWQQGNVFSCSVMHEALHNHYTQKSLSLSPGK

Row | Binder | binding result [1] | Kd [2] | koff [2] | kon [2] | Kd [3] | koff [3] | kon [3]
1 | B1 | binds | – | – | – | – | – | –
2 | B2 | – | 106 nM | 0.00326 s⁻¹ | 30800 M⁻¹ s⁻¹ | 4.09 nM | 0.000395 s⁻¹ | 97200 M⁻¹ s⁻¹
